These results are taken from US20050153887A1.

Common to all, as to experiment: cell-based or functional assay
Assay [1] deals with Dishevelled (overexpressed in 293T cells for the reporter assay).
In assay [2] the target is Ryk (DNA construct expressing Ryk, transfected into 293T cells for the reporter assays).
Assay [3] has as its target endogenous Ryk of mouse (mouse) (UniProt Q01887).
The target of assay [4] is endogenous Ryk in 293T cells (human) (UniProt P34925).
Sequence of UniProt P34925 (P34925 other isoform, or with tags, fused parts or gaps limits assumed): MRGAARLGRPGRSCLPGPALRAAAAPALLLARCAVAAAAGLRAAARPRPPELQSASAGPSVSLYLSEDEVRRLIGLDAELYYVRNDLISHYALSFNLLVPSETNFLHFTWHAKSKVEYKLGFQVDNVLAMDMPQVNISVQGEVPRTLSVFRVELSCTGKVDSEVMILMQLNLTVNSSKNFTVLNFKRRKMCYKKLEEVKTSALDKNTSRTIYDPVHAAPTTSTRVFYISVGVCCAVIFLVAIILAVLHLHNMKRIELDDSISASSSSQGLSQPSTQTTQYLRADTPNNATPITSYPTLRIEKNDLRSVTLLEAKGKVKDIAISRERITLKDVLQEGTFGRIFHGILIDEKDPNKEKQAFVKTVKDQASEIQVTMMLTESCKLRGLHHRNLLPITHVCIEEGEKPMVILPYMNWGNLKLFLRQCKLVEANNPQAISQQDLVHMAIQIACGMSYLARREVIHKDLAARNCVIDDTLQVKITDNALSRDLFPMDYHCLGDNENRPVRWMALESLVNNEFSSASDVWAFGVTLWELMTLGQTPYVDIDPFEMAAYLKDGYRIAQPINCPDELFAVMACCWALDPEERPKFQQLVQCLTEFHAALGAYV

Sequence of UniProt Q01887 (Q01887 35-594 limits assumed): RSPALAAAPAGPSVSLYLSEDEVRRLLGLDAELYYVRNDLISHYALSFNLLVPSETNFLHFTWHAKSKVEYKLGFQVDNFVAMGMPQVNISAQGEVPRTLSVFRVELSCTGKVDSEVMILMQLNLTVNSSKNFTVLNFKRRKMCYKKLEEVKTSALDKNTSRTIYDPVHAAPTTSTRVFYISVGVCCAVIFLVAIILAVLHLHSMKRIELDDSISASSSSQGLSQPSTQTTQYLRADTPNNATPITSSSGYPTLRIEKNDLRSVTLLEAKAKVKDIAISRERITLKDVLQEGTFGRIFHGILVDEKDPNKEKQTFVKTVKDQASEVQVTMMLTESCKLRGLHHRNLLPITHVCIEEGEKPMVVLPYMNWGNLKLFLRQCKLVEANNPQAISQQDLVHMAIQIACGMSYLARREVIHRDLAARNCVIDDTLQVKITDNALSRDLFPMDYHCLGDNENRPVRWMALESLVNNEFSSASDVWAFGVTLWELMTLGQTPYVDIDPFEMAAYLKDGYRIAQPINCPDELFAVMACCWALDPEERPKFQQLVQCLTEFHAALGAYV

“Ryk (DNA construct expressing Ryk, transfected into 293T cells for the reporter assays) (receptor)”: in assay [1], the activation of the TCF-luciferase reporter on co-expression of Ryk with Dishevelled (Dishevelled alone about 15-fold) stood at 25 fold.

Turning to “Wnt3a (Wnt3a conditioned medium) (ligand)”, the activation of the TCF-luciferase reporter in 293T cells transfected with Ryk and treated with Wnt3a conditioned medium in assay [2] is 5 fold. The average length of neurites of DRG explants in Wnt3a conditioned medium, Ryk siRNA mice against wild type in assay [3] is 2 fold.

B1: Wnt-1 (cotransfected into 293T cells for the reporter assay) (ligand, UniProt P04628 28-370, looked up, species assumed)
Proto-oncogene Wnt-1: ANSSGRWWGIVNVASSTNLLTDSKSLQLVLEPSLQLLSRKQRRLIRQNPGILHSVSGGLQSAVRECKWQFRNRRWNCPTAPGPHLFGKIVNRGCRETAFIFAITSAGVTHSVARSCSEGSIESCTCDYRRRGPGGPDWHWGGCSDNIDFGRLFGREFVDSGEKGRDLRFLMNLHNNEAGRTTVFSEMRQECKCHGMSGSCTVRTCWMRLPTLRAVGDVLRDRFDGASRVLYGNRGSNRASRAELLRLEPEDPAHKPPSPHDLVYFEKSPNFCTYSGRLGTAGTAGRACNSSSPALDGCELLCCGRGHRTRTQRVTERCNCTFHWCCHVSCRNCTHTRVLHECL
Take B1: in assay [4], the activation of the TCF-luciferase reporter in wild type 293T cells after Wnt stimulation was 25 fold and the inhibition of TCF-driven transcription induced by Wnt-1 in Ryk siRNA-containing 293T cells came out at 12 fold.
